From publication PMC4559445

Biological target: PbTpk2^(226-583)-His6 (P. brasiliensis)

in vitro kinase activity (ADP-Glo) of 3 μM PbTpk2 on 50 μM kemptide in the presence of 4 μM PbGpb1, relative to PbTpk2 with kemptide alone: 40 % reduction
Substance: PbGpb1-GST (natural protein)
